Key:
[1] = molecular target: T1, anti-CD28 Fab (SEQ ID NOs: 202, 203); test: phage ELISA on captured Fab, wells pre-incubated with CD28 antigen (competitor);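 further: clonal phage ELISA with wells pretreated with CD28 plus blocking buffer before phage addition, bound phage detected by HRP-linked anti-M13 antibody, reference wells got blocking buffer only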
T1 construct: biotinylated and captured on neutravidin coated plates in the phage ELISA
Protocol: (§1) Clonal phage were harvested as crude supernatants and screened via standard ELISAs. […] Prior to the addition of clonal phage, wells were incubated with blocking buffer and CD28 antigen or blocking buffer alone. Without washing or aspirating, clonal phage supernatants were then added to the wells and incubated for a short time. Wells were then washed followed by detection of bound phage using a horse radish conjugated anti-M13 antibody.

[2] = molecular target: T1, anti-CD28 Fab (SEQ ID NOs: 202, 203); test: phage ELISA on captured Fab;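 further: ELISA with clonal phage supernatants added to wells preincubated with CD28 antigen or with blocking buffer only, bound phage detected by HRP-conjugated anti-M13 antibody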
Protocol: as §1

[3] = molecular target: Anti-CD28 Fab (SEQ ID NOs: 202, 203); test: phage binding ELISA on captured Fab;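 further: clonal phage supernatants added briefly to wells pre-incubated with CD28 antigen or with blocking buffer only, then washed, bound phage read by ELISA using HRP-coupled anti-M13 antibody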
Sequence of Anti-CD28 Fab (SEQ ID NOs: 202, 203) (VH, as listed by the source, chain 1 of 2): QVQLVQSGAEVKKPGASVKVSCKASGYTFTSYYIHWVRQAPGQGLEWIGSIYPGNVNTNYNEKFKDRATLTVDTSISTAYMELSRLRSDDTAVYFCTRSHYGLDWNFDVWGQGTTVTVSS
Sequence of Anti-CD28 Fab (SEQ ID NOs: 202, 203) (VL, as listed by the source, chain 2 of 2): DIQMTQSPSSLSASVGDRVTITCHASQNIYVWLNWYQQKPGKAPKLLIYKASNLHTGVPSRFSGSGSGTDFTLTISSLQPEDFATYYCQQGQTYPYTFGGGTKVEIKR
Protocol: as §1

[4] = molecular target: Anti-CD28 Fab (SEQ ID NOs: 202, 203); test: phage binding ELISA on captured Fab, competitor CD28 antigen;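 further: clonal phage supernatant binding in wells preincubated with CD28 antigen in blocking buffer, detected by HRP-conjugated anti-M13 antibody ELISA, compared with blocking buffer alone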
Protocol: as §1

T1 sequence (VH, as listed by the source, chain 1 of 2): as the sequence (VH, as listed by the source, chain 1 of 2) above
T1 sequence (VL, as listed by the source, chain 2 of 2): as the sequence (VL, as listed by the source, chain 2 of 2) above

| Binder | Anti-CD28 Fab signal in the presence of CD28 [1] | Anti-CD28 Fab (SEQ ID NOs: 202, 203) signal [2] | Anti-CD28 Fab (SEQ ID NOs: 202, 203) signal [3] | Anti-CD28 Fab signal in the presence of CD28 [4] |
| --- | --- | --- | --- | --- |
| YCEGHAPQYMNKCL (on phage, pIII fusion) [Phage-456] | 0.08 | 1.67 | – | – |
| YCEGHAPQYMTKCL (on phage, pIII fusion) [Phage-461] | 0.08 | 1.67 | – | – |
| YCAGHLDEYMEKCL [Phage-885] | – | – | 0.4 | 0.07 |
| YCEGHLPMYMIKCL (on phage, pIII fusion) [Phage-464] | 0.09 | 1.66 | – | – |
| YCEGHAQEYMNKCL (on phage, pIII fusion) [Phage-460] | 0.06 | 1.67 | – | – |
| YCEGHVELYRQKCL [Phage-864] | – | – | 0.56 | 0.06 |
| YCDGHSEQYMSKCL (on phage, pIII fusion) [Phage-451] | 0.07 | 1.68 | – | – |
| YCDGHSEVYMAKCL (on phage, pIII fusion) [Phage-471] | 0.06 | 1.66 | – | – |
| YCDGHSLQYMSKCL (on phage, pIII fusion) [Phage-589] | 0.06 | 1.45 | – | – |
| YCEGHLDEYLQKCM [Phage-867] | – | – | 0.51 | 0.08 |
| YCDGHSSLYMHKCL (on phage, pIII fusion) [Phage-454] | 0.07 | 1.67 | – | – |
| YCDGHSWQYISKCL (on phage, pIII fusion) [Phage-455] | 0.05 | 1.67 | – | – |
| YCAGHTTEYIVKCL [Phage-868] | – | – | 0.5 | 0.05 |
| YCDGHDVEYMAKCL (on phage, pIII fusion) [Phage-470] | 0.07 | 1.66 | – | – |
| YCDGHDVEYMSKCL (on phage, pIII fusion) [Phage-486] | 0.05 | 1.64 | – | – |
| YCDGHSTEYMEKCL (on phage, pIII fusion) [Phage-453] | 0.08 | 1.68 | – | – |
| YCDGHSVEYMEKCL (on phage, pIII fusion) [Phage-476] | 0.09 | 1.65 | – | – |
| YCDGHSQEYMEKCL (on phage, pIII fusion) [Phage-564] | 0.06 | 1.5 | – | – |
| YCAGHLPEFMDKCL (on phage, pIII fusion) [Phage-468] | 0.06 | 1.66 | – | – |
| YCEGHVPQYMGKCL [Phage-869] | – | – | 0.5 | 0.08 |
| YCDGHSREYMSKCL (on phage, pIII fusion) [Phage-458] | 0.1 | 1.67 | – | – |
| YCDGHSREYMNKCL (on phage, pIII fusion) [Phage-469] | 0.06 | 1.66 | – | – |
| YCDGHAPQWMAKCL (on phage, pIII fusion) [Phage-457] | 0.1 | 1.67 | – | – |
| YCDGHAAEYMAKCV (on phage, pIII fusion) [Phage-459] | 0.07 | 1.67 | – | – |
| YCDGHAQEYMDKCL (on phage, pIII fusion) [Phage-500] | 0.08 | 1.62 | – | – |

Source: patent US20260274955A1 (JANUX THERAPEUTICS, published 2026)
